This note sets out measurements from patent EP1104310B1.

Holding throughout (test): cell-based or functional assay
Experiment [1] addresses CCR5 expressed on HOS-CD4 cells (UniProt P51681).
Experiment [2] deals with CCR3 expressed on HOS-CD4 cells (UniProt P51677).
Experiment [3] has as its target CCR4 expressed on HOS-CD4 cells (UniProt P51679).
Experiment [4] has as its target CXCR4 expressed on HOS-CD4 cells (UniProt P61073).
In experiment [5] the target is CCR1 expressed on HOS-CD4 cells (UniProt P32246).
Sequence of UniProt P32246 (P32246 whole entry): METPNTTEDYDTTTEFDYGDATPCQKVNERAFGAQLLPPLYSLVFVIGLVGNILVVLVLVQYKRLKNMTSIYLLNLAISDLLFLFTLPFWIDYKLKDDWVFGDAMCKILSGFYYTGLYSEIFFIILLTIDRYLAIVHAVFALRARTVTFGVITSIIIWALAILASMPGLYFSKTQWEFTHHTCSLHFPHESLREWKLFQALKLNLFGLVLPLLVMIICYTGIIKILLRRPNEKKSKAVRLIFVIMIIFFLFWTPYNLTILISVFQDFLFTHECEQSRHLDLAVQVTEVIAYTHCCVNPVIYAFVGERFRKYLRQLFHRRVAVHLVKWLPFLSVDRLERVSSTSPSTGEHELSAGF

Bounds are passed on as bounds.

Sequence of UniProt P51677 (P51677 whole entry): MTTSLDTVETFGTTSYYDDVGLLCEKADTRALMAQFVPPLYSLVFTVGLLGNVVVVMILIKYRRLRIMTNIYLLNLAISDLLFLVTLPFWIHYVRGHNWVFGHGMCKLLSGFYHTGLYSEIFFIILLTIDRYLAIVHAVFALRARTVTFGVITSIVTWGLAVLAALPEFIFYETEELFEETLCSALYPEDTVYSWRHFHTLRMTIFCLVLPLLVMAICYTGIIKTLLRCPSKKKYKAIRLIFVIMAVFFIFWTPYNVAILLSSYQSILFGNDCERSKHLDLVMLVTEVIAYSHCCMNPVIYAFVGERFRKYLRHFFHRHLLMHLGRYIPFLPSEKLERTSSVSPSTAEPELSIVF
Sequence of UniProt P61073 (P61073 whole entry): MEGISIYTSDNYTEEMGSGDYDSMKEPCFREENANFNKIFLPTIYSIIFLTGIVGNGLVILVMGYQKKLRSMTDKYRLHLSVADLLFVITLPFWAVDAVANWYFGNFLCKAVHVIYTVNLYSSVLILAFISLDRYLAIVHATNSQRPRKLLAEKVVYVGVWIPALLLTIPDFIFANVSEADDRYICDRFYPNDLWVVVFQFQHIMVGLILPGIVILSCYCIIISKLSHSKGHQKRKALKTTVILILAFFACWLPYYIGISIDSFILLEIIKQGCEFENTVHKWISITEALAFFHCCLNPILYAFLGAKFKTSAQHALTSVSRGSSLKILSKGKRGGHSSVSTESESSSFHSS
Sequence of UniProt P51679 (P51679 whole entry): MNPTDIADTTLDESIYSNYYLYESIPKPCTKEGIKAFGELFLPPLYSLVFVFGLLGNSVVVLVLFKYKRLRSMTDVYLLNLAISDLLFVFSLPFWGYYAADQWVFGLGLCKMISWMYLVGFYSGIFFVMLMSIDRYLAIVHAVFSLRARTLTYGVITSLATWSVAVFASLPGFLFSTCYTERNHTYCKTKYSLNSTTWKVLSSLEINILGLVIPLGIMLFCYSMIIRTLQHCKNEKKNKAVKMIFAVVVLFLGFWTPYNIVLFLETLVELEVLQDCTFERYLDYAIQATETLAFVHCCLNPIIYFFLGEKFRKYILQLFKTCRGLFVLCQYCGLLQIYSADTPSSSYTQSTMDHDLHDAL
Sequence of UniProt P51681 (P51681 whole entry): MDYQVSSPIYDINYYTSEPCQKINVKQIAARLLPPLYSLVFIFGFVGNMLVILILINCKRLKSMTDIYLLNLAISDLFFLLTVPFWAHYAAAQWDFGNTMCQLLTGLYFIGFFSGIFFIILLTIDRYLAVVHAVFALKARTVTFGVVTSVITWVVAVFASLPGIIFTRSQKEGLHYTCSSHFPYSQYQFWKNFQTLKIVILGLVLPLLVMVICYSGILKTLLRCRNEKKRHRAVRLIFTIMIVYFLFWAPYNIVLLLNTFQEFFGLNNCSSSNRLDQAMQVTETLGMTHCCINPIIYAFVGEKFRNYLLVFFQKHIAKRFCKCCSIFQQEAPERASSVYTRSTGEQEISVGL

Turning to “HIV-1 AD8 envelope, expressed on pseudovirus”, the Infectivity Titer in HOS-CD4 Cells Expressing CCR5 in experiment [1] is 256 titer (1:n). The Infectivity Titer in HOS-CD4 Cells Expressing CCR3 in experiment [2] was < 4 titer (1:n). Further, the Infectivity Titer in HOS-CD4 Cells Expressing CCR4 in experiment [3] is < 4 titer (1:n). Besides, the Infectivity Titer in HOS-CD4 Cells Expressing CXCR4 in experiment [4] is < 4 titer (1:n). Also, the Infectivity Titer in HOS-CD4 Cells Expressing CCR1 in experiment [5] was < 4 titer (1:n).
“HIV-1 NL4-3 envelope, expressed on pseudovirus”: the Infectivity Titer in HOS-CD4 Cells Expressing CCR5 in experiment [1] is 32 titer (1:n). The Infectivity Titer in HOS-CD4 Cells Expressing CCR3 in experiment [2] was < 4 titer (1:n). In addition, the Infectivity Titer in HOS-CD4 Cells Expressing CCR4 in experiment [3] is < 4 titer (1:n). Further, the Infectivity Titer in HOS-CD4 Cells Expressing CXCR4 in experiment [4] was > 256 titer (1:n). Further, the Infectivity Titer in HOS-CD4 Cells Expressing CCR1 in experiment [5] was < 4 titer (1:n).
